T1: human amylin receptor (human calcitonin receptor + human RAMP3) (human) (UniProt P30988)
T1 sequence (looked up) 1: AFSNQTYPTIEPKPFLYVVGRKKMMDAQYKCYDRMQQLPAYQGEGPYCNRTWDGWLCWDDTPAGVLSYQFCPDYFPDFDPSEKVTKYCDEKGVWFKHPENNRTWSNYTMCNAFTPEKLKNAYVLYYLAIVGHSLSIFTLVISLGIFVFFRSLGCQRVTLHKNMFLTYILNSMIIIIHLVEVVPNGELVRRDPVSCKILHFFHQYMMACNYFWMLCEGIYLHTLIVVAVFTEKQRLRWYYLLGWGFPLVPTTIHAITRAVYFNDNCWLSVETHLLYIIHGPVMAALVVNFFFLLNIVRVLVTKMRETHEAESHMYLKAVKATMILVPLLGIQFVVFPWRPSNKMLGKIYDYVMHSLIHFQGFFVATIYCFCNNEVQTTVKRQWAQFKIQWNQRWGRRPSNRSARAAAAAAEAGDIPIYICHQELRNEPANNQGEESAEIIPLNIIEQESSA
T1 sequence (looked up) 2: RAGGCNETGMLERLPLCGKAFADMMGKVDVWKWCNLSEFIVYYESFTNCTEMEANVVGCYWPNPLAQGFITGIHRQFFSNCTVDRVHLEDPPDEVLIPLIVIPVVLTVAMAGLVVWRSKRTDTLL

B1: [N-terminal(C20 diacid-gGlu), des1, 12K, 23Y, 25K, 30S, 31G, 33Y]mimylin (peptide)
peptide: {C20 diacid-γGlu}-ASELSTAALGKLSAELHELATYPKTETGSGSY-NH2
SMILES: CC(C)C[C@H](NC(=O)[C@H](C)NC(=O)[C@H](C)NC(=O)[C@@H](NC(=O)[C@H](CO)NC(=O)[C@H](CC(C)C)NC(=O)[C@H](CCC(=O)O)NC(=O)[C@H](CO)NC(=O)[C@H](C)NC(=O)CC[C@H](NC(=O)CCCCCCCCCCCCCCCCCCC(=O)O)C(=O)O)[C@@H](C)O)C(=O)NCC(=O)N[C@@H](CCCCN)C(=O)N[C@@H](CC(C)C)C(=O)N[C@@H](CO)C(=O)N[C@@H](C)C(=O)N[C@@H](CCC(=O)O)C(=O)N[C@@H](CC(C)C)C(=O)N[C@@H](Cc1c[nH]cn1)C(=O)N[C@@H](CCC(=O)O)C(=O)N[C@@H](CC(C)C)C(=O)N[C@@H](C)C(=O)N[C@H](C(=O)N[C@@H](Cc1ccc(O)cc1)C(=O)N1CCC[C@H]1C(=O)N[C@@H](CCCCN)C(=O)N[C@H](C(=O)N[C@@H](CCC(=O)O)C(=O)N[C@H](C(=O)NCC(=O)N[C@@H](CO)C(=O)NCC(=O)N[C@@H](CO)C(=O)N[C@@H](Cc1ccc(O)cc1)C(N)=O)[C@@H](C)O)[C@@H](C)O)[C@@H](C)O
B2: [N-terminal(C20 diacid), des1, 4G, 15Q, 21Q, 23Y, 30S, 31G, 32T, 33Y]mimylin (peptide)
peptide: {C20 diacid}-ASGLSTAALGRLSQELHELQTYPRTETGSGTY-NH2
SMILES: CC(C)C[C@H](NC(=O)CNC(=O)[C@H](CO)NC(=O)[C@H](C)NC(=O)CCCCCCCCCCCCCCCCCCC(=O)O)C(=O)N[C@@H](CO)C(=O)N[C@H](C(=O)N[C@@H](C)C(=O)N[C@@H](C)C(=O)N[C@@H](CC(C)C)C(=O)NCC(=O)N[C@@H](CCCNC(=N)N)C(=O)N[C@@H](CC(C)C)C(=O)N[C@@H](CO)C(=O)N[C@@H](CCC(N)=O)C(=O)N[C@@H](CCC(=O)O)C(=O)N[C@@H](CC(C)C)C(=O)N[C@@H](Cc1c[nH]cn1)C(=O)N[C@@H](CCC(=O)O)C(=O)N[C@@H](CC(C)C)C(=O)N[C@@H](CCC(N)=O)C(=O)N[C@H](C(=O)N[C@@H](Cc1ccc(O)cc1)C(=O)N1CCC[C@H]1C(=O)N[C@@H](CCCNC(=N)N)C(=O)N[C@H](C(=O)N[C@@H](CCC(=O)O)C(=O)N[C@H](C(=O)NCC(=O)N[C@@H](CO)C(=O)NCC(=O)N[C@H](C(=O)N[C@@H](Cc1ccc(O)cc1)C(N)=O)[C@@H](C)O)[C@@H](C)O)[C@@H](C)O)[C@@H](C)O)[C@@H](C)O
B3: [des1, 4G, 15Q, 21Q, 23Y, 30S, 31K(C20 diacid-gGlu), 32T, 33Y]mimylin (peptide)
peptide: ASGLSTAALGRLSQELHELQTYPRTETGSK([γGlu-C20 diacid])TY-NH2
modifications: N-terminus assumed
SMILES: CC(C)C[C@H](NC(=O)CNC(=O)[C@H](CO)NC(=O)[C@H](C)N)C(=O)N[C@@H](CO)C(=O)N[C@H](C(=O)N[C@@H](C)C(=O)N[C@@H](C)C(=O)N[C@@H](CC(C)C)C(=O)NCC(=O)N[C@@H](CCCNC(=N)N)C(=O)N[C@@H](CC(C)C)C(=O)N[C@@H](CO)C(=O)N[C@@H](CCC(N)=O)C(=O)N[C@@H](CCC(=O)O)C(=O)N[C@@H](CC(C)C)C(=O)N[C@@H](Cc1c[nH]cn1)C(=O)N[C@@H](CCC(=O)O)C(=O)N[C@@H](CC(C)C)C(=O)N[C@@H](CCC(N)=O)C(=O)N[C@H](C(=O)N[C@@H](Cc1ccc(O)cc1)C(=O)N1CCC[C@H]1C(=O)N[C@@H](CCCNC(=N)N)C(=O)N[C@H](C(=O)N[C@@H](CCC(=O)O)C(=O)N[C@H](C(=O)NCC(=O)N[C@@H](CO)C(=O)N[C@@H](CCCCNC(=O)CC[C@H](NC(=O)CCCCCCCCCCCCCCCCCCC(=O)O)C(=O)O)C(=O)N[C@H](C(=O)N[C@@H](Cc1ccc(O)cc1)C(N)=O)[C@@H](C)O)[C@@H](C)O)[C@@H](C)O)[C@@H](C)O)[C@@H](C)O
B4: [N-terminal(C20 diacid-gGlu), des1, 4G, 15T, 21E, 23Y, 30S, 31G, 32T, 33Y]mimylin (peptide)
peptide: {C20 diacid-γGlu}-ASGLSTAALGRLSTELHELETYPRTETGSGTY-NH2
SMILES: CC(C)C[C@H](NC(=O)CNC(=O)[C@H](CO)NC(=O)[C@H](C)NC(=O)CC[C@H](NC(=O)CCCCCCCCCCCCCCCCCCC(=O)O)C(=O)O)C(=O)N[C@@H](CO)C(=O)N[C@H](C(=O)N[C@@H](C)C(=O)N[C@@H](C)C(=O)N[C@@H](CC(C)C)C(=O)NCC(=O)N[C@@H](CCCNC(=N)N)C(=O)N[C@@H](CC(C)C)C(=O)N[C@@H](CO)C(=O)N[C@H](C(=O)N[C@@H](CCC(=O)O)C(=O)N[C@@H](CC(C)C)C(=O)N[C@@H](Cc1c[nH]cn1)C(=O)N[C@@H](CCC(=O)O)C(=O)N[C@@H](CC(C)C)C(=O)N[C@@H](CCC(=O)O)C(=O)N[C@H](C(=O)N[C@@H](Cc1ccc(O)cc1)C(=O)N1CCC[C@H]1C(=O)N[C@@H](CCCNC(=N)N)C(=O)N[C@H](C(=O)N[C@@H](CCC(=O)O)C(=O)N[C@H](C(=O)NCC(=O)N[C@@H](CO)C(=O)NCC(=O)N[C@H](C(=O)N[C@@H](Cc1ccc(O)cc1)C(N)=O)[C@@H](C)O)[C@@H](C)O)[C@@H](C)O)[C@@H](C)O)[C@@H](C)O)[C@@H](C)O
B5: [N-terminal(C18 diacid-gGlu), des1, 5V, 9V, 10V, 20V, 30S, 31G]mimylin (peptide)
peptide: {C18 diacid-γGlu}-ASEVSTAVVGRLSAELHEVATLPRTETGSGSP-NH2
SMILES: CC(C)C[C@H](NC(=O)[C@H](CCCNC(=N)N)NC(=O)CNC(=O)[C@@H](NC(=O)[C@@H](NC(=O)[C@H](C)NC(=O)[C@@H](NC(=O)[C@H](CO)NC(=O)[C@@H](NC(=O)[C@H](CCC(=O)O)NC(=O)[C@H](CO)NC(=O)[C@H](C)NC(=O)CC[C@H](NC(=O)CCCCCCCCCCCCCCCCC(=O)O)C(=O)O)C(C)C)[C@@H](C)O)C(C)C)C(C)C)C(=O)N[C@@H](CO)C(=O)N[C@@H](C)C(=O)N[C@@H](CCC(=O)O)C(=O)N[C@@H](CC(C)C)C(=O)N[C@@H](Cc1c[nH]cn1)C(=O)N[C@@H](CCC(=O)O)C(=O)N[C@H](C(=O)N[C@@H](C)C(=O)N[C@H](C(=O)N[C@@H](CC(C)C)C(=O)N1CCC[C@H]1C(=O)N[C@@H](CCCNC(=N)N)C(=O)N[C@H](C(=O)N[C@@H](CCC(=O)O)C(=O)N[C@H](C(=O)NCC(=O)N[C@@H](CO)C(=O)NCC(=O)N[C@@H](CO)C(=O)N1CCC[C@H]1C(N)=O)[C@@H](C)O)[C@@H](C)O)[C@@H](C)O)C(C)C
B6: [N-terminal(C20 diacid-gGlu), des1, 21S, 23Y, 30S, 31G, 33Y]mimylin (peptide)
peptide: {C20 diacid-γGlu}-ASELSTAALGRLSAELHELSTYPRTETGSGSY-NH2
SMILES: CC(C)C[C@H](NC(=O)[C@H](C)NC(=O)[C@H](C)NC(=O)[C@@H](NC(=O)[C@H](CO)NC(=O)[C@H](CC(C)C)NC(=O)[C@H](CCC(=O)O)NC(=O)[C@H](CO)NC(=O)[C@H](C)NC(=O)CC[C@H](NC(=O)CCCCCCCCCCCCCCCCCCC(=O)O)C(=O)O)[C@@H](C)O)C(=O)NCC(=O)N[C@@H](CCCNC(=N)N)C(=O)N[C@@H](CC(C)C)C(=O)N[C@@H](CO)C(=O)N[C@@H](C)C(=O)N[C@@H](CCC(=O)O)C(=O)N[C@@H](CC(C)C)C(=O)N[C@@H](Cc1c[nH]cn1)C(=O)N[C@@H](CCC(=O)O)C(=O)N[C@@H](CC(C)C)C(=O)N[C@@H](CO)C(=O)N[C@H](C(=O)N[C@@H](Cc1ccc(O)cc1)C(=O)N1CCC[C@H]1C(=O)N[C@@H](CCCNC(=N)N)C(=O)N[C@H](C(=O)N[C@@H](CCC(=O)O)C(=O)N[C@H](C(=O)NCC(=O)N[C@@H](CO)C(=O)NCC(=O)N[C@@H](CO)C(=O)N[C@@H](Cc1ccc(O)cc1)C(N)=O)[C@@H](C)O)[C@@H](C)O)[C@@H](C)O
B7: [N-terminal(C20 diacid-gGlu), 4Q, 9V, 15Q, 21Q, 23Y, 27G, 30S, 31G, 32T, 33Y]mimylin (peptide)
peptide: {C20 diacid-γGlu}-EASQLSTAVLGRLSQELHELQTYPRTGTGSGTY-NH2
SMILES: CC(C)C[C@H](NC(=O)[C@H](CCCNC(=N)N)NC(=O)CNC(=O)[C@H](CC(C)C)NC(=O)[C@@H](NC(=O)[C@H](C)NC(=O)[C@@H](NC(=O)[C@H](CO)NC(=O)[C@H](CC(C)C)NC(=O)[C@H](CCC(N)=O)NC(=O)[C@H](CO)NC(=O)[C@H](C)NC(=O)[C@H](CCC(=O)O)NC(=O)CC[C@H](NC(=O)CCCCCCCCCCCCCCCCCCC(=O)O)C(=O)O)[C@@H](C)O)C(C)C)C(=O)N[C@@H](CO)C(=O)N[C@@H](CCC(N)=O)C(=O)N[C@@H](CCC(=O)O)C(=O)N[C@@H](CC(C)C)C(=O)N[C@@H](Cc1c[nH]cn1)C(=O)N[C@@H](CCC(=O)O)C(=O)N[C@@H](CC(C)C)C(=O)N[C@@H](CCC(N)=O)C(=O)N[C@H](C(=O)N[C@@H](Cc1ccc(O)cc1)C(=O)N1CCC[C@H]1C(=O)N[C@@H](CCCNC(=N)N)C(=O)N[C@H](C(=O)NCC(=O)N[C@H](C(=O)NCC(=O)N[C@@H](CO)C(=O)NCC(=O)N[C@H](C(=O)N[C@@H](Cc1ccc(O)cc1)C(N)=O)[C@@H](C)O)[C@@H](C)O)[C@@H](C)O)[C@@H](C)O

The source of these data is US20160272683A1 (Novo Nordisk, published 2016).

Numbered stars: 1 amine (or outer) side, 2 acyl side, 3 side chain; on linkers, the order of the positions; unused ones are H or OH. Side chains are listed from the residue outwards. Ends that are not written are not given here. * marks the point of attachment. C20 diacid = O=C(O)CCCCCCCCCCCCCCCCCCC(=O)*; C18 diacid = O=C(O)CCCCCCCCCCCCCCCCC(=O)*; γGlu = O=C(O)[C@H](CCC(=O)[*:2])N[*:1]

The assay has as its target T1, human amylin receptor (human calcitonin receptor + human RAMP3) (human). As to the kind of experiment: whole-cell competition vs 125I-rat amylin (Assay Va).
What is called IC50 is the concentration that inhibits the measured activity by half. Regarding {C18 diacid-γGlu}-ASELTTAVLGRLEAELHELTTLPRTETGTGTP-NH2 [[N-terminal(C18 diacid-gGlu), des1, 6T, 9V, 14E, 21T, 30T, 31G, 32T]mimylin], the concentration for half-maximal inhibition (IC50) was determined as 19.7 nM. For the molecule B1, the IC50 is 0.588 nM. As for B2, the IC50 turned out to be 0.222 nM. For the molecule B3, the 50% inhibitory concentration (IC50) was 5.45 nM. In the case of B4, the half-maximal inhibitory concentration (IC50) stood at 0.431 nM. On to B5, for which the half-maximal inhibitory concentration (IC50) was 1.65 nM. For the molecule B6, the IC50 is 0.186 nM. Take B7: the IC50 came out at 0.338 nM.
